The record followed here is PMC6525511.

The test has as its target RIG-5 (construct not stated; SPR) (C. elegans). The test can be described thus: SPR.

Consider “ZIG-8 (purified; construct not stated; SV-AUC and SPR) (from UniProt G5ED00 22-251) (natural protein)”, for which the Kd (commonly the free concentration of one partner at which half of the binding sites on the other are occupied at equilibrium, for simple one-to-one binding) is 10 µM.
